For 2 molecules, Tm of the complex results are on record in paper PMC2563037.

This assay deals with H-2K^b (MHC class I heavy chain with its light chain, the 'heterodimer' of the crystal structures) (mouse | not stated). The assay is described as follows: circular dichroism thermal melt; far-UV CD of the H-2K^b/peptide-Aba complexes, thermostatted cuvette, 30 to 90°C.

Non-standard residues stand in square brackets, D forms with d. No end group written: not given here. Abu = CC[C@H](N)C(=O)O

In the case of R[Abu]QIFANI, the Tm of the complex worked out at 54 °C.
To R[Abu]YIFANI belongs 64 °C.
